Results: paper PMC7820290 (Nature Communications, 2020)

Columns and labels:
Test in all cases: […]; 5 mM HEPES pH 7.5, 80 mM KCl, 20 °C; […]
Conditions in all cases: both partners purified
[1] = molecular target: T1, SARS-CoV-2 nucleocapsid (N) protein, full length (419 aa) (SARS-CoV-2, UniProt P0DTC9 1-419)
T1 construct: also called N^1–419; N^FL

[2] = molecular target: T2, SARS-CoV-2 N protein residues 247–419 (SARS-CoV-2, UniProt P0DTC9 247-419)
T2 construct: also called N^247–419

[3] = molecular target: T3, SARS-CoV-2 N protein residues 175–419 (SARS-CoV-2, UniProt P0DTC9 175-419)
T3 construct: also called N^175–419

[4] = molecular target: T4, SARS-CoV-2 N protein residues 175–364 (SARS-CoV-2, UniProt P0DTC9 175-364)
T4 construct: also called N^175–364

Measured: binding result

B1: soluble C-terminal domain of SARS-CoV-2 membrane (M) protein (aa 104–222 of 222) fused to GFP (domain or fragment)
chain: ARTRSMWSFNPETNILLNVPLHGTILTRPLLESELVIGAVILRGHLRIAGHHLGRCDIKDLPKEITVATSRTLSYYKLGASQRVAGDSGFAAYSRYRIGNYKLNTDHSSSSDNIALLVQ
notes: also called GFP-M^104–222
binds: all assays above
